Experiments:
[1] = tested on: His-GlnR (Mycobacterium smegmatis); test: BLI; conditions: 37 C, 200 mM KCl, 2 mM Mg2+, BLI: 10 mM HEPES pH 8.0, 2 mM MgCl2, 0.1 mM EDTA, 10 ug/ml BSA, 0.02% Tween-20 (running buffer), EMSA: 2 ng biotin probe in 10 uL, Beyotime …
[2] = tested on: His-PrpR; test: BLI; conditions: 37 C, 200 mM KCl, 2 mM Mg2+, BLI: 10 mM HEPES pH 8.0, 2 mM MgCl2, 0.1 mM EDTA, 10 ug/ml BSA, 0.02% Tween-20 (running buffer), EMSA: 2 ng biotin probe in 10 uL, Beyotime …

## Picl (Msm icl promoter)
[1]
  Kd: 33.7 nM
[2]
  Kd: 171 nM

— PMC7886694
